# Legend:
# [1] = target: equine LH/chorionic gonadotropin receptor (eLH/CGR), in CHO-K1 cells (equine)
# [2] = target: rat FSH receptor (rFSHR), in CHO-K1 cells (rat) (UniProt P20395)
# [3] = target: rat LH/chorionic gonadotropin receptor (rLH/CGR), in CHO-K1 cells (rat) (UniProt P16235)
# [4] = target: equine LH/chorionic gonadotropin receptor from pVSVG-eLH/CGR (pCORON1000 SP VSV-G), in HEK 293 cells (equine)
# Sequence of UniProt P16235 (P16235 27-700): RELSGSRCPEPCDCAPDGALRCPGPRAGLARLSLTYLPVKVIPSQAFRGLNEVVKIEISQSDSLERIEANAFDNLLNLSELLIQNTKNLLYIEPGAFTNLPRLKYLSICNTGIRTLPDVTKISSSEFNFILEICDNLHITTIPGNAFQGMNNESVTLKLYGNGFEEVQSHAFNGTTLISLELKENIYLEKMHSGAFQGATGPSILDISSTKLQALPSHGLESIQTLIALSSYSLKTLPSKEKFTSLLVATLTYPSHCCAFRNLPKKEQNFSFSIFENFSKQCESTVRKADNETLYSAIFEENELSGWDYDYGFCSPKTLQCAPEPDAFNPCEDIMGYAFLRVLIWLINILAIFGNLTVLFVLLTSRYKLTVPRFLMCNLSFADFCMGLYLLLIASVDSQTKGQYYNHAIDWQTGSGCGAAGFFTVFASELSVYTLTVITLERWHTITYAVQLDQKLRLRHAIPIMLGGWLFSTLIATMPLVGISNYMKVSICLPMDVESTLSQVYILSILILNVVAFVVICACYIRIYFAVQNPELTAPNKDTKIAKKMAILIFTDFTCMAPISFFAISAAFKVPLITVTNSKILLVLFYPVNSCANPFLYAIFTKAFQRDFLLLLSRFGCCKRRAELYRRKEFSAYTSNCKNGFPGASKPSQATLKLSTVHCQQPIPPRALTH
# Sequence of UniProt P20395 (P20395 18-692): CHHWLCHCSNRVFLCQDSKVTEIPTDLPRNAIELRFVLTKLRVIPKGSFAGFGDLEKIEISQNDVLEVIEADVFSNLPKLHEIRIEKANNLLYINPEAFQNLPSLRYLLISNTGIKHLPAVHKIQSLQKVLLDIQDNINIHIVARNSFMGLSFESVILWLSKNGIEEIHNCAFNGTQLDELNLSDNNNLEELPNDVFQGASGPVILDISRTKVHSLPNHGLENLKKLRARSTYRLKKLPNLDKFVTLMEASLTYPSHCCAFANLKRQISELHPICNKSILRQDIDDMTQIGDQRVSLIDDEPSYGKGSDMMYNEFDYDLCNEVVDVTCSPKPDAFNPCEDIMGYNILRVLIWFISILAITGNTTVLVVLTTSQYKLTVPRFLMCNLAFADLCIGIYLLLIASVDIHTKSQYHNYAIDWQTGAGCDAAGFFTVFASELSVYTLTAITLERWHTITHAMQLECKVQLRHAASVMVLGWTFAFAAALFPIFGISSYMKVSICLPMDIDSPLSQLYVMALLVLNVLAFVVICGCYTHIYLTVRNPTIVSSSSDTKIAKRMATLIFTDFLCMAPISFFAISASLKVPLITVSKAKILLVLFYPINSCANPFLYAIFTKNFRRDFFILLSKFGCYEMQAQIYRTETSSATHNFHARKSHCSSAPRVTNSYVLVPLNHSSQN
substance,measurement,setting,value
single-chain recombinant equine chorionic gonadotropin β/α (rec-eCG β/α) (from UniProt P08751 21-169) (ligand),"cAMP production (HTRF) in CHO-K1 cells expressing eLH/CGR, 30 min with rec-eCG: EC50",[1],0.2 ng/mL
same,"cAMP production (HTRF) in CHO-K1 cells expressing rFSHR, 30 min with rec-eCG: EC50",[2],0.1 ng/mL
same,"cAMP production (HTRF) in CHO-K1 cells expressing rLH/CGR, 30 min with rec-eCG: EC50",[3],0.03 ng/mL
same,"pERK1/2 activation (HTRF) in HEK 293 cells expressing eLH/CGR, 50 and 250 ng/mL rec-eCG, 0 to 30 min, fold over basal activity",[4],7.8 fold
